Assay results from US20200384107A1 (PRIMATOPE THERAPEUTICS, published 2020).

Legend:
[1] = biological target: T1, human CD40, recombinant / purified (human, UniProt P25942 21-193, limits assumed); experiment: kinetics on human CD40, compared with murine 2C10
T1 construct: also called hCD40; purified CD40

[2] = biological target: T1, human CD40, recombinant / purified; experiment: kinetics on human CD40, compared with parent 2C10
[3] = biological target: T1, human CD40, recombinant / purified; experiment: CD40 binding affinity, method not given; reference murine 2C10
human CD40-MBP fusion = biological target: T2, human CD40-MBP fusion (human, UniProt P25942 21-193; P0AEX9 27-392 = MBP, limits assumed); experiment: BIACore 3000, h2C10 amine-coupled to a CM5 chip, human CD40-MBP injected at 0-160 nM
T2 construct: also called CD40-MBP fusions of human
Experimental: (§1) Humanized 2C10 antibodies (h2C10) were immobilized to the surface of CM5 chip by amine coupling. Different concentrations of CD40-MBP fusions of human, rhesus, and baboon were analyzed for affinity on a BIACore 3000. The binding affinity was calculated with BIAevaluation software version 4.1.1.

baboon CD40-MBP fusion = biological target: T3, baboon CD40-MBP fusion (baboon, UniProt P0AEX9 27-392 = MBP); experiment: BIACore 3000, h2C10 amine-coupled to a CM5 chip, baboon CD40-MBP injected at 0-160 nM
T3 construct: also called CD40-MBP fusions of baboon; not shown: baboon CD40 part of the MBP fusion
Experimental: as §1

rhesus CD40-MBP fusion = biological target: T4, rhesus CD40-MBP fusion (rhesus macaque (M. mulatta), UniProt P25942 21-120 (human entry)); experiment: BIACore 3000, h2C10 amine-coupled to a CM5 chip, rhesus CD40-MBP injected at 0-160 nM
T4 construct: also called CD40-MBP fusions of rhesus
T4 chain: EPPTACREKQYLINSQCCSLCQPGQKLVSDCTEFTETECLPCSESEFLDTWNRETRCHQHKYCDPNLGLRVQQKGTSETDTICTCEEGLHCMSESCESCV
Experimental: as §1

[4] = biological target: T1, human CD40, recombinant / purified; experiment: kinetics on human CD40; Biacore by paragraph 276, Forte Bio with biotinylated CD40 on streptavidin biosensors by paragraph 270
[5] = biological target: T5, CD40 (as in Table 2, species and form not stated); experiment: binding kinetics, method not stated
T5 construct: also called CD40 Receptor

[6] = biological target: T6, human CD40 on human blood B cells (CD20+ cells of PBMCs) (human, UniProt P25942 21-277); experiment: flow cytometry blocking assay: human B cells incubated with 2C10, then with histidine-tagged soluble CD154, read by histidine staining
T6 construct: whole, on cells; also called human CD20+ B cells; human B cells
Experimental: To assess the ability of 2C10 to bind to both rhesus and human CD40, recombinantly expressed human or rhesus CD40 were adsorbed to ELISA plates and reacted with varying concentrations of 2C10. Binding of 2C10 to CD40 was detected using goat anti-mouse IgG-HRP in an ELISA. […] To confirm the ability of 2C10 to block binding of its cognate ligand, CD154, rhesus and human B cells were incubated with escalating concentrations of 2C10 or an isotype control and then incubated with histidine-tagged soluble CD154 (R&D Systems, Minneapolis, Minn.) and analyzed for histidine expression.

B1: humanized 2C10, clone 2.189.2 (2C10_h3 + 2C10_l2) (antibody, V domains shown)
VH: QVQLVQSGAEVKKPGASVKVSCKASGYTFTNYWMHWVRQAPGQRLEWIGYINPSNDYTKYNQKFKDRATLTADKSANTAYMELSSLRSEDTAVYYCARQGFPYWGQGTLVTVSS
VL: EIVLTQSPATLSLSPGERATLSCSASSSVSYMHWYQQKPGQAPRRWIYDTSKLASGVPARFSGSGSGTDYTLTISSLEPEDFAVYYCHQLSSDPFTFGGGTKVEIK
notes: also called h2C10; mAb 2.189.2
fold of affinity against murine 2C10 [1]: ≤ 2 fold | fold reduction in affinity relative to the parent 2C10 mAb [2]: ~2 fold | fold of the affinity of murine 2C10 [3]: ≤ 2 fold | Kd (human CD40-MBP fusion): 4.72 nM | Kd (baboon CD40-MBP fusion): 2.57 nM | Kd (rhesus CD40-MBP fusion): 2.61 nM | Kd [4]: 0.39 nM | koff [4]: 0.000128 s⁻¹ | kon [4]: 179000 M⁻¹ s⁻¹

B2: 2C10 (murine anti-CD40 monoclonal antibody) (antibody, V domains shown)
VH: QVQLQQSGAELAKPGASVKMSCKASGYTFTNYWMHWVKQRPGQGLEWIGYINPSNDYTKYNQKFKDKATLTADKSSNTAYMQLGSLTSEDSAVYYCARQGFPYWGQGTLVTVSA
VL: QIVLTQSPAIMSASPGEKVTMTCSASSSVSYMHWYHQRSGTSPKRWIYDTSKLASGVPARFSGSGSGTSYSLTISSMEAEDAATYYCHQLSSDPFTFGSGTKLEIK
notes: In some assays it was conjugated to a fluorochrome (APC); also called murine 2C10; parent 2C10 mAb
Kd [5]: 0.273 nM | koff [5]: 1.86e-06 s⁻¹ | kon [5]: 2730 M⁻¹ s⁻¹ | Kd [4]: 0.222 nM | koff [4]: 6.01e-05 s⁻¹ | kon [4]: 148000 M⁻¹ s⁻¹ | IC50 (read off the curve) [6]: ~1 µg/mL
